Drawing on paper PMC9430930, this text covers binding for 4 sequences.

The test system of the series is NupR (NagR2) (Bacillus thuringiensis BMB171), ORF:032de0b7. Description: EMSA. As to conditions: NupR: 10 mM Tris-HCl pH 7.5, 50 mM NaCl, 0.5 mM DTT, 4% glycerol, 200 ng poly(dI-dC), 25 C 30 min, ComK/CcpA/PurR: 10 mM Tris-HCl pH 8.0, 50 mM KCl.
On to “CGCATTTCAATTATTCGACCTCTGATGTAAGACTTCTTTTCTCTTTTTTCAACTTACAACATAGTACAAATGACTAAACACCAAAATAAGTGTAATTGTCGAATAAATAATAATAATTTTTTAAAATAAAATTTTCACTCTTTATTGCATAAAAAAAACTTTGCACCATAAACATTCCTCATTTCGAGAAAAAGTTCGGCACAAAGATCCTTTACATCCTTTGTTACACACTTTTCCCCTCATAGTCTAGCAATTCATGGTTGCC (double strand) [nagR2 (nupR) promoter]”, for which the binding entry is “binds”. “CTAATACAACACGGTTAATACCTTTTTTCATTTCAAAATTCCTCGCAATTTCATTGATTTTATTATGTAAGATAATACGTCTTACTTCTATAGAGTCATATCTAGTTTATTACATTTTATAAAAGATATTCAAGTATTTGAAAATGTATCCGTGCAAATCCGCGAACAAAACATAGGAATTCAGTGAACCGAATATAATTCAGTAAAATCCTTTGTAAAAGGGGAAATGGCATGG (double strand) [ldh promoter]”: the binding result is given as “binds”. For “GGTGAAATAGTATGGTCATCACGTAATAAAGTATCATCTAAATCTAAAACAATCATTTTATAAGTCATATAGAAAATTCCTTTCTTTAATTGAAATCAAAATACATGTTCATGAAGATGTTGAGGAATAATAGTAAGACATCAAACCTCTTTGAAAAGAAGTAGATAAATTATTATGAGTTGTTGCTCATAATATTGGTTAATAATCATTGGGGAAGAATAAAACCCCAATGATTAAAGTTTGATTTTATCGTAACAACTCTAAAGGTAGAGTGCAATAATGGAAGTT (double strand) [had promoter]” the value was “binds”. For “TGCATACTTACTCACCATCCCATTAGAACAATCTAATTTTTTGAGTTGTCATACCACTACAATAATGTGAATTCGACAATTTTTGATATGAAATAATGCATAATATATATAAAATTCGGCAAATTTTTCATACAATTCATCTCACATACAATAATAGATTAGGAGTGTTATAGATGAATTATAG (double strand) [baci promoter]” the value was “binds”.
